Measured values from the Immune Epitope Database (IEDB).

Key:
HLA-B*53:01 = experiment: IEDB peptide-MHC binding, purified MHC/competitive/radioactivity; filed as Kd, often an IC50 or EC50 that approximates it; ≥ and ≤ were set here for values at or beyond the usual limits of such assays
HLA-B*35:01 = experiment: as above
HLA-B*54:01 = experiment: as above; conditions: source organism: Vaccinia virus WR
HLA-B*07:02 = experiment: as above
HLA-B*51:01 [1] = experiment: as above; conditions: source organism: Vaccinia virus WR
HLA-B*40:01 = experiment: as above
HLA-B*57:01 = experiment: IEDB peptide-MHC binding, purified MHC/direct/fluorescence; filed as Kd, often an IC50 or EC50 that approximates it; ≥ and ≤ were set here for values at or beyond the usual limits of such assays
HLA-B*58:01 = experiment: as above
HLA-B*15:17 = experiment: as above
HLA-A*24:02 [2] = experiment: IEDB peptide-MHC binding, purified MHC/competitive/fluorescence; ≥ and ≤ were set here for values at or beyond the usual limits of such assays
HLA-B*48:01 = experiment: IEDB peptide-MHC binding, purified MHC/direct/fluorescence; filed as Kd, often an IC50 or EC50 that approximates it; ≥ and ≤ were set here for values at or beyond the usual limits of such assays
HLA-B*44:03 = experiment: IEDB peptide-MHC binding, purified MHC/competitive/radioactivity; filed as Kd, often an IC50 or EC50 that approximates it; ≥ and ≤ were set here for values at or beyond the usual limits of such assays
HLA-B*44:02 = experiment: as above
HLA-B*39:01 = experiment: IEDB peptide-MHC binding, purified MHC/competitive/fluorescence; filed as Kd, often an IC50 or EC50 that approximates it; ≥ and ≤ were set here for values at or beyond the usual limits of such assays; conditions: source organism: Influenza A virus (A/gray teal/Australia/2/1979(H4N4))
HLA-A*23:01 = experiment: IEDB peptide-MHC binding, purified MHC/competitive/radioactivity; filed as Kd, often an IC50 or EC50 that approximates it; ≥ and ≤ were set here for values at or beyond the usual limits of such assays; conditions: source organism: Dengue virus 1 Brazil/97-11/1997
HLA-A*24:02 [3] = experiment: as above; conditions: source organism: Dengue virus 1 Brazil/97-11/1997
HLA-A*26:01 = experiment: IEDB peptide-MHC binding, purified MHC/competitive/fluorescence; filed as Kd, often an IC50 or EC50 that approximates it; ≥ and ≤ were set here for values at or beyond the usual limits of such assays; conditions: source organism: Influenza A virus (A/Waikato/7/2000(H3N2))
HLA-A*02:01 [4] = experiment: IEDB peptide-MHC binding, purified MHC/competitive/radioactivity; filed as Kd, often an IC50 or EC50 that approximates it; ≥ and ≤ were set here for values at or beyond the usual limits of such assays
HLA-A*02:01 [5] = experiment: IEDB peptide-MHC binding, purified MHC/competitive/fluorescence; ≥ and ≤ were set here for values at or beyond the usual limits of such assays
HLA-B*51:01 [6] = experiment: IEDB peptide-MHC binding, purified MHC/competitive/fluorescence; filed as Kd, often an IC50 or EC50 that approximates it; ≥ and ≤ were set here for values at or beyond the usual limits of such assays; conditions: source organism: Burkholderia ambifaria AMMD
HLA-B*15:01 = experiment: as above; conditions: source organism: Yersinia pestis Nepal516
[7] = source organism: Vaccinia virus WR
[8] = source organism: Dengue virus 3 Martinique/1243/1999
[9] = source organism: Camelpox virus M-96
[10] = source organism: Zaire ebolavirus
[11] = source organism: Dengue virus 1 Singapore/S275/1990
[12] = source organism: Dengue virus 1 Brazil/97-11/1997
[13] = source organism: Triticum aestivum
[14] = source organism: Dengue virus 4 Philippines/H241/1956
[15] = source organism: Vaccinia virus
[16] = source organism: Listeria monocytogenes serotype 4b str. H7858

Work on SPLPSLEYGA yielded a Kd (HLA-B*53:01; [7]) of 12.4 µM, a Kd (HLA-B*35:01; [7]) of 6 µM and a Kd (HLA-B*54:01) of 0.000204 µM. It also gave a Kd (HLA-B*07:02; [7]) of 1.64 µM and a Kd (HLA-B*51:01 [1]) of at least 69.6 µM.

IEQMANGIAL was tested, and the Kd (HLA-B*40:01; [8]) was 0.00257 µM.

Sequence KSVTKSSSW has a Kd (HLA-B*57:01; [9]) of 0.108 µM, a Kd (HLA-B*58:01; [9]) of 0.0162 µM and a Kd (HLA-B*15:17; [9]) of at most 0.001 µM.

For RQTQSRPIQ, the IC50 (HLA-A*24:02 [2]; [10]) was at least 125 µM.

For WRTIMAVLF, the Kd (HLA-B*48:01; source organism: dengue virus type 4) was at least 20 µM.

With AEHSGASHNI the Kd (HLA-B*44:03; [11]) was 0.502 µM and the Kd (HLA-B*44:02; [11]) was 0.0786 µM.

In the case of YNAELLVAL, the Kd (HLA-B*39:01) is reported as 0.0009 µM.

In the case of RPMFAVGLLF, the Kd (HLA-A*23:01) is reported as 0.0339 µM, the Kd (HLA-B*53:01; [12]) is reported as 0.0935 µM and the Kd (HLA-B*35:01; [12]) is reported as 0.919 µM. For the same sequence, the Kd (HLA-A*24:02 [3]) was 0.416 µM and the Kd (HLA-B*07:02; [12]) was 0.0105 µM.

DTVHDRTPY was tested, and the Kd (HLA-A*26:01) was 0.0414 µM.

EQLGVPLHL showed a Kd (HLA-B*48:01; source organism: Vibrio alginolyticus 12G01) of 0.488 µM.

With ELCCQHLWQI the Kd (HLA-A*02:01 [4]; [13]) was 5.55 µM.

VEITALILGA was tested, and the Kd (HLA-B*40:01; [14]) was 0.842 µM.

Work on RNTTPMMIQ yielded an IC50 (HLA-A*24:02 [2]; [15]) of at least 70.4 µM.

In the case of NLEEICQLI, the IC50 (HLA-A*02:01 [5]; [10]) is reported as 65.1 µM and the IC50 (HLA-A*24:02 [2]; [10]) is reported as at least 90.8 µM.

Sequence ADMGCVINW has a Kd (HLA-B*44:03; [8]) of 0.11 µM and a Kd (HLA-B*44:02; [8]) of 0.0928 µM.

Sequence LEENMEVEIW has a Kd (HLA-B*44:03; [14]) of 0.257 µM and a Kd (HLA-B*44:02; [14]) of 0.225 µM.

With EYLFEVDNL the IC50 (HLA-A*02:01 [5]; [10]) was 43.7 µM and the IC50 (HLA-A*24:02 [2]; [10]) was 0.402 µM.

MEVTAKWLWG showed a Kd (HLA-B*44:03; [12]) of 0.128 µM.

For RAAGLQDCTM, the Kd (HLA-A*02:01 [4]; source organism: Hepatitis C virus (isolate 1)) was at least 50 µM.

With GEFGKAKGS the Kd (HLA-B*44:03; source organism: Dengue virus 2 Jamaica/1409/1983) was 4.16 µM.

In the case of PEVANLDII, the Kd (HLA-B*40:01; [12]) is reported as 8.59 µM.

LPWSSPQLW showed a Kd (HLA-B*51:01 [6]) of 0.0906 µM.

In the case of AIHNVVHAI, the Kd (HLA-A*02:01 [4]; [13]) is reported as 0.166 µM.

In the case of FEATARGARR, the Kd (HLA-B*40:01; [12]) is reported as 1.9 µM.

Work on NGTLEFTPI yielded an IC50 (HLA-A*02:01 [5]; [7]) of 11.1 µM and an IC50 (HLA-A*24:02 [2]; [7]) of 23.1 µM.

With LTLTNTSII the Kd (HLA-A*02:01 [4]; source organism: Lassa virus Josiah) was 6.25 µM.

In the case of FFVWVIILF, the IC50 (HLA-A*24:02 [2]; source organism: Sudan ebolavirus) is reported as 1.51 µM.

RLGLSRPLL gave a Kd (HLA-A*02:01 [4]; source organism: Hepatitis B virus subtype ayw) of at least 5 µM.

SISGVLWQV showed a Kd (HLA-A*02:01 [4]; source organism: Hepatitis C virus subtype 2b) of 0.036 µM.

QYVDDANLE was tested, and the IC50 (HLA-A*24:02 [2]; [15]) was at least 1330 µM.

With LDKITDFHE the IC50 (HLA-A*24:02 [2]; source organism: Variola virus) was 24.2 µM.

SGASTSQETW gave a Kd (HLA-B*44:02; [12]) of 10.9 µM.

For WENVPYLGK, the Kd (HLA-B*44:02; [8]) was 8.42 µM.

TEYKRVMTF was tested, and the Kd (HLA-B*15:01) was 0.767 µM.

Sequence RKHHTKIDS has an IC50 (HLA-A*24:02 [2]; source organism: Variola virus) of 27.2 µM.

Work on KSAYPFDEL yielded a Kd (HLA-B*57:01; [16]) of at least 20 µM, a Kd (HLA-B*58:01; [16]) of 0.046 µM and a Kd (HLA-B*15:17; source organism: Listeria monocytogenes) of 0.134 µM.
